Assay results from the supplement of paper PMC9112550, “Optimization of the antimicrobial peptide Bac7 by deep mutational scanning” (BMC Biology, 2022).

System: Escherichia coli TOP10
Test: shrunken log2 fold change of peptide-encoding DNA abundance (4.5 h post-induction vs induction); higher = less antimicrobial activity (less host growth inhibition)
Details: time post-induction: 4.5 h; library: site-saturation at positions 5, 18, 19, 20
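Note: peptides expressed intracellularly from a pBAD plasmid library in pooled LB shake-flask culture, induced with 0.3% L-arabinose, DNA abundance read by NGS, three biological replicates, DESeq2 with apeglm shrinkage.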

| Sequence | shrunken log2 fold change |
| --- | --- |
| RRIRIRPPRLPRPRPRPYYCPRP | -0.529 |
| RRIRWRPPRLPRPRPRPVDQPRP | 0.168 |
| RRIRIRPPRLPRPRPRPMAMPRP | -0.024 |
| RRIRQRPPRLPRPRPRPMYEPRP | -0.01 |
| RRIRTRPPRLPRPRPRPATCPRP | 2.77 |
| RRIRSRPPRLPRPRPRPTKDPRP | -0.105 |
| RRIRLRPPRLPRPRPRPWICPRP | -0.213 |
| RRIRCRPPRLPRPRPRPHCRPRP | -0.0478 |
| RRIRLRPPRLPRPRPRPCEVPRP | 0.0632 |
| RRIRRRPPRLPRPRPRPCERPRP | 0.137 |
| RRIRIRPPRLPRPRPRPIEWPRP | -0.123 |
| RRIRFRPPRLPRPRPRPCKAPRP | -0.0248 |
| RRIRERPPRLPRPRPRPILDPRP | -0.209 |
| RRIRSRPPRLPRPRPRPCCGPRP | 0.983 |
| RRIRSRPPRLPRPRPRPIFRPRP | 0.0112 |
| RRIRTRPPRLPRPRPRPEQKPRP | 0.154 |
| RRIRRRPPRLPRPRPRPSTMPRP | -0.467 |
| RRIRCRPPRLPRPRPRPSYQPRP | -0.923 |
| RRIRNRPPRLPRPRPRPKMWPRP | 0.279 |
| RRIRKRPPRLPRPRPRPCVIPRP | 0.0227 |
| RRIRRRPPRLPRPRPRPIAGPRP | -0.12 |
| RRIRNRPPRLPRPRPRPTDGPRP | -0.113 |
| RRIRARPPRLPRPRPRPKDGPRP | 0.298 |
| RRIRQRPPRLPRPRPRPVFTPRP | -0.217 |
| RRIRYRPPRLPRPRPRPEFCPRP | -0.258 |

| Sequence | shrunken log2 fold change |
| --- | --- |
| RRIRFRPPRLPRPRPRPNFQPRP | -0.272 |
| RRIRQRPPRLPRPRPRPHKYPRP | -1.21 |
| RRIRMRPPRLPRPRPRPIMVPRP | -0.0355 |
| RRIRHRPPRLPRPRPRPNTAPRP | -0.246 |
| RRIRRRPPRLPRPRPRPAQGPRP | -0.179 |
| RRIRWRPPRLPRPRPRPEERPRP | 0.0923 |
| RRIRCRPPRLPRPRPRPMSRPRP | 0.0291 |
| RRIRIRPPRLPRPRPRPKGLPRP | 0.121 |
| RRIRDRPPRLPRPRPRPCLWPRP | 0.218 |
| RRIRIRPPRLPRPRPRPDTSPRP | -0.283 |
| RRIRVRPPRLPRPRPRPYKHPRP | -0.81 |
| RRIRLRPPRLPRPRPRPWMNPRP | -0.0474 |
| RRIRMRPPRLPRPRPRPIYAPRP | 1.86 |
| RRIRHRPPRLPRPRPRPHVRPRP | -0.0157 |
| RRIRQRPPRLPRPRPRPLFMPRP | -1.12 |
| RRIRCRPPRLPRPRPRPWQFPRP | -0.0402 |
| RRIRARPPRLPRPRPRPSARPRP | 0.479 |
| RRIRQRPPRLPRPRPRPMLAPRP | 0.0967 |
| RRIRLRPPRLPRPRPRPNTLPRP | -0.136 |
| RRIRFRPPRLPRPRPRPMHQPRP | -0.0493 |
| RRIRHRPPRLPRPRPRPWVHPRP | -0.179 |
| RRIRNRPPRLPRPRPRPSWIPRP | -0.425 |
| RRIRCRPPRLPRPRPRPHISPRP | -0.535 |
| RRIRGRPPRLPRPRPRPVPVPRP | 0.629 |
| RRIRCRPPRLPRPRPRPPCEPRP | -0.0942 |

| Sequence | shrunken log2 fold change |
| --- | --- |
| RRIRQRPPRLPRPRPRPYQFPRP | -0.168 |
| RRIRWRPPRLPRPRPRPITYPRP | -0.828 |
| RRIRMRPPRLPRPRPRPMQHPRP | 0.579 |
| RRIRYRPPRLPRPRPRPVFEPRP | 0.0623 |
| RRIRERPPRLPRPRPRPKDHPRP | -0.323 |
| RRIRERPPRLPRPRPRPGDIPRP | -0.072 |
| RRIRHRPPRLPRPRPRPRSFPRP | -0.0488 |
| RRIRRRPPRLPRPRPRPDAYPRP | 0.249 |
| RRIRTRPPRLPRPRPRPASEPRP | -0.0873 |
| RRIRIRPPRLPRPRPRPPMSPRP | -0.288 |
| RRIRIRPPRLPRPRPRPQEPPRP | -0.04 |
| RRIRWRPPRLPRPRPRPMMPPRP | 0.0187 |
| RRIRVRPPRLPRPRPRPAWHPRP | 0.657 |
| RRIRCRPPRLPRPRPRPFRAPRP | -0.277 |
| RRIRSRPPRLPRPRPRPAFKPRP | -0.333 |
| RRIRLRPPRLPRPRPRPQVGPRP | -0.203 |
| RRIRPRPPRLPRPRPRPEQHPRP | 0.214 |
| RRIRERPPRLPRPRPRPAYNPRP | -0.449 |
| RRIRHRPPRLPRPRPRPVFIPRP | -0.493 |
| RRIRQRPPRLPRPRPRPQSGPRP | -0.0474 |
| RRIRSRPPRLPRPRPRPHHCPRP | -0.0623 |
| RRIRFRPPRLPRPRPRPQCHPRP | -0.358 |
| RRIRTRPPRLPRPRPRPTDSPRP | -0.106 |
| RRIRMRPPRLPRPRPRPRTFPRP | 0.541 |
| RRIRDRPPRLPRPRPRPAQDPRP | 0.684 |

| Sequence | shrunken log2 fold change |
| --- | --- |
| RRIRERPPRLPRPRPRPGPTPRP | 0.215 |
| RRIRMRPPRLPRPRPRPSQLPRP | -0.0454 |
| RRIRKRPPRLPRPRPRPINQPRP | -0.166 |
| RRIRSRPPRLPRPRPRPQYMPRP | -0.695 |
| RRIRPRPPRLPRPRPRPDSQPRP | -0.127 |
| RRIRHRPPRLPRPRPRPSHRPRP | -0.548 |
| RRIRKRPPRLPRPRPRPYFNPRP | -0.593 |
| RRIRVRPPRLPRPRPRPHRPPRP | -0.243 |
| RRIRMRPPRLPRPRPRPLYDPRP | -0.0878 |
| RRIRPRPPRLPRPRPRPRSSPRP | 0.151 |
| RRIRSRPPRLPRPRPRPNEPPRP | -0.0883 |
| RRIRGRPPRLPRPRPRPEKFPRP | 0.716 |
| RRIRSRPPRLPRPRPRPVNCPRP | -0.247 |
| RRIRQRPPRLPRPRPRPYIIPRP | -0.332 |
| RRIRARPPRLPRPRPRPHSYPRP | 0.0128 |
| RRIRLRPPRLPRPRPRPACSPRP | 0.0854 |
| RRIRARPPRLPRPRPRPDGVPRP | 0.971 |
| RRIRPRPPRLPRPRPRPPDTPRP | 0.148 |
| RRIRDRPPRLPRPRPRPPAYPRP | -0.0668 |
| RRIRCRPPRLPRPRPRPQPDPRP | 0.102 |
| RRIRNRPPRLPRPRPRPWQEPRP | -0.0629 |
| RRIRKRPPRLPRPRPRPIWWPRP | 0.0844 |
| RRIRPRPPRLPRPRPRPNIYPRP | -0.69 |
| RRIRTRPPRLPRPRPRPTEIPRP | -0.119 |
| RRIRFRPPRLPRPRPRPLWSPRP | 0.655 |

| Sequence | shrunken log2 fold change |
| --- | --- |
| RRIRHRPPRLPRPRPRPDWPPRP | 0.114 |
| RRIRTRPPRLPRPRPRPVAMPRP | -0.0639 |
| RRIRNRPPRLPRPRPRPRWHPRP | -0.114 |
| RRIRHRPPRLPRPRPRPEYHPRP | -0.317 |
| RRIRHRPPRLPRPRPRPQVRPRP | -0.134 |
| RRIRMRPPRLPRPRPRPPHGPRP | 1.06 |
| RRIRSRPPRLPRPRPRPNNPPRP | -0.3 |
| RRIRNRPPRLPRPRPRPMCKPRP | -0.175 |
| RRIRKRPPRLPRPRPRPYKAPRP | -0.0235 |
| RRIRTRPPRLPRPRPRPHWAPRP | 0.0228 |
| RRIRYRPPRLPRPRPRPEHLPRP | -0.357 |
| RRIRWRPPRLPRPRPRPSDIPRP | -0.031 |
| RRIRIRPPRLPRPRPRPSYIPRP | -1.04 |
| RRIRPRPPRLPRPRPRPTDWPRP | 0.257 |
| RRIRKRPPRLPRPRPRPLSRPRP | 0.254 |
| RRIRVRPPRLPRPRPRPAWMPRP | 0.0871 |
| RRIRCRPPRLPRPRPRPGYPPRP | -0.00859 |
| RRIRYRPPRLPRPRPRPFYHPRP | -0.635 |
| RRIRNRPPRLPRPRPRPTCMPRP | 0.0558 |
| RRIRKRPPRLPRPRPRPKLMPRP | 0.267 |
| RRIRIRPPRLPRPRPRPQWQPRP | -0.182 |
| RRIRGRPPRLPRPRPRPFNGPRP | 0.0458 |
| RRIRVRPPRLPRPRPRPHKYPRP | -0.725 |
| RRIRNRPPRLPRPRPRPPQPPRP | 0.621 |
| RRIRMRPPRLPRPRPRPIEVPRP | -0.00822 |

| Sequence | shrunken log2 fold change |
| --- | --- |
| RRIRLRPPRLPRPRPRPWTRPRP | -0.148 |
| RRIRKRPPRLPRPRPRPKSDPRP | -0.015 |
| RRIRARPPRLPRPRPRPGSEPRP | 0.0951 |
| RRIRNRPPRLPRPRPRPAANPRP | 0.487 |
| RRIRYRPPRLPRPRPRPCINPRP | -0.00114 |
| RRIRTRPPRLPRPRPRPKDNPRP | -0.5 |
| RRIRERPPRLPRPRPRPPRTPRP | 0.316 |
| RRIRCRPPRLPRPRPRPRCIPRP | -0.29 |
| RRIRQRPPRLPRPRPRPRKDPRP | -0.16 |
| RRIRARPPRLPRPRPRPMERPRP | 0.0157 |
| RRIRFRPPRLPRPRPRPLDGPRP | -0.143 |
| RRIRERPPRLPRPRPRPGRNPRP | -0.237 |
| RRIRARPPRLPRPRPRPQEGPRP | -0.0912 |
| RRIRLRPPRLPRPRPRPNGIPRP | -0.00731 |
| RRIRHRPPRLPRPRPRPQVVPRP | -0.101 |
| RRIRQRPPRLPRPRPRPEFCPRP | 0.0723 |
| RRIRDRPPRLPRPRPRPWVGPRP | 0.0332 |
| RRIRVRPPRLPRPRPRPIWQPRP | -0.114 |
| RRIRARPPRLPRPRPRPWKKPRP | -0.0663 |
| RRIRSRPPRLPRPRPRPVMMPRP | -0.0812 |
| RRIRYRPPRLPRPRPRPYEQPRP | -0.0134 |
| RRIRVRPPRLPRPRPRPSELPRP | -0.157 |
| RRIRFRPPRLPRPRPRPQRNPRP | -0.323 |
| RRIRGRPPRLPRPRPRPVSIPRP | 0.00516 |
| RRIRRRPPRLPRPRPRPQPCPRP | -0.101 |
